Laboratory results from article PMC13076993.

What was measured:
[1] = target: human PD-1 (programmed cell death 1) on Jurkat cells (human) (UniProt Q15116)
[2] = target: human PD-1 (programmed cell death 1) on Jurkat cells (human) (UniProt Q15116); remark: listed apart in the source

UniProt Q15116, sequence (Q15116 25-288): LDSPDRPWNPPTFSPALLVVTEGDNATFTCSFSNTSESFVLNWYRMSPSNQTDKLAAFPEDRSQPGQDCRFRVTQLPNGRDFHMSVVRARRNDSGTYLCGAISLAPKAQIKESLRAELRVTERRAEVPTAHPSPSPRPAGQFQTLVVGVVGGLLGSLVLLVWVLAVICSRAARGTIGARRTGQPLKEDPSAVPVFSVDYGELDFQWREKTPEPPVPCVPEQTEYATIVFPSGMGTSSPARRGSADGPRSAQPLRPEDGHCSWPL

Substance: human PD-L1 extracellular domain (from E. coli) (from UniProt Q9NZQ7 19-238) (ligand)
- IL-2 secretion of Jurkat cells stimulated with CO-L1 beads (CD3 antibody and PD-L1) in the presence of soluble S-PDL1 at various concentrations [1]: 100 µg/mL
- force at which the bond lifetime peaks [2]: 7 pN
